# Where a chain is given by its changes, count along the chain named. Several values for one entry are separate records, joined by “and”; a condition that tells them apart may be missing. Identical values can stand only once.
# B1: S2X259 variant antibody, VH SEQ ID NO 459 / VL SEQ ID NO 445 (antibody, V domains shown)
# VH: QVQLVQSGAEVKKPGSSVKVSCKASGGIFNTYTISWVRQAPGQGLEWMGRIILMSGKANYAQKIQGRVTITADKSTSTAYMELTSLRSDDTAVYYCARGFNGNYYGWGDDDAFDIWGQGTLVTVSS
# VL: QTVLTQPPSVSGAPGQRVTISCTGSNSNIGAGYDVHWYQQLPGTAPKLLIVGNSNRPSGVPDRFSGSKSGTSASLAITGLQAEDEADYYCQSYDSSLSGPNWVFGGGTKLTVL
# B2: S2X259 variant antibody, VH SEQ ID NO 460 / VL SEQ ID NO 445 (antibody, V domains shown)
# VH: B1 VH with M54I, K57I
# VL: B1 VL
# B3: S2X259 variant antibody, VH SEQ ID NO 408 / VL SEQ ID NO 445 (antibody, V domains shown)
# VH: B1 VH with K57M, W116S, S125Y
# VL: B1 VL
# B4: S2X259 variant antibody, VH SEQ ID NO 458 / VL SEQ ID NO 445 (antibody, V domains shown)
# VH: B1 VH with K57M
# VL: B1 VL
# B5: S2X259 variant antibody, VH SEQ ID NO 408 / VL SEQ ID NO 443 (antibody, V domains shown)
# VH: B1 VH with K57M, W116S, S125Y
# VL: B1 VL with V51A
# B6: S2X259 variant antibody, VH SEQ ID NO 408 / VL SEQ ID NO 442 (antibody, V domains shown)
# VH: B1 VH with K57M, W116S, S125Y
# VL: B1 VL with V51S
# B7: S2X259 variant antibody, VH SEQ ID NO 408 / VL SEQ ID NO 444 (antibody, V domains shown)
# VH: B1 VH with K57M, W116S, S125Y
# VL: B1 VL with V51Y
# B8: S2X259 variant antibody, VH SEQ ID NO 448 / VL SEQ ID NO 412 (antibody, V domains shown)
# VH: B1 VH with N30S, K57M, W116S, S125Y
# VL: B1 VL with V51C
# B9: S2X259 variant antibody, VH SEQ ID NO 446 / VL SEQ ID NO 412 (antibody, V domains shown)
# VH: B1 VH with M54I, K57I, W116S, S125Y
# VL: B1 VL with V51C
# B10: 407_10_1_v2 (antibody, V domains shown)
# VH: B1 VH with K57M, S125Y
# VL: B1 VL with V51C
# Target: T1, SARS-CoV-2 RBD (residues 331-550 of spike from BetaCoV/Wuhan-Hu-1/2019, accession number MN908947) (SARS-CoV-2 Wuhan-Hu-1, UniProt P0DTC2 331-550)
# Experiment: BLI
Binder,Kd,koff,kon
B1,0.108 nM,6.46e-05 s⁻¹,601000 M⁻¹ s⁻¹
B2,0.298 nM,0.000177 s⁻¹,595000 M⁻¹ s⁻¹
B3,0.0314 nM,2.08e-05 s⁻¹,661000 M⁻¹ s⁻¹
B4,0.0836 nM,5.03e-05 s⁻¹,601000 M⁻¹ s⁻¹

# Target: T1, SARS-CoV-2 RBD (residues 331-550 of …)
# Experiment: BLI
# Remark: another data set of the same source
row,Binder,Kd
1,B5,0.0828 nM
2,B3,0.0764 nM
3,B6,0.0605 nM
4,B7,0.0642 nM
5,B8,0.584 nM
6,B9,0.572 nM

# Target: T2, SARS-CoV-2 Spike protein (SARS-CoV-2 Wuhan-Hu-1, UniProt P0DTC2 14-1273)
# Experiment: cell-based or functional assay
row,Binder,neutralization IC50
1,B5,< 0.1 µg/mL
2,B3,< 0.1 µg/mL

# Target: T1, SARS-CoV-2 RBD (residues 331-550 of …)
# Experiment: ELISA
row,Binder,IC50
1,B1,≥ 0.05 µg/mL and ≤ 0.1 µg/mL
2,B2,≥ 0.05 µg/mL and ≤ 0.1 µg/mL
3,B4,≥ 0.05 µg/mL and ≤ 0.1 µg/mL

# Target: SARS-CoV-2 mutant RBD N439K (SARS-CoV-2, UniProt P0DTC2 328-531)
# Experiment: ELISA
row,Binder,IC50
1,B1,≥ 0.05 µg/mL and ≤ 0.1 µg/mL
2,B4,≥ 0.05 µg/mL and ≤ 0.1 µg/mL

# Target: T1, SARS-CoV-2 RBD (residues 331-550 of …)
# Experiment: not given
row,Binder,EC50 (read off the curve)
1,B10,~5 µg/mL

# Target: T2, SARS-CoV-2 Spike protein
# Experiment: cell-based or functional assay
# Remark: another data set of the same source
row,Binder,neutralization IC50
1,B5,0.0975 µg/mL
2,B3,0.19 µg/mL
3,B6,0.19 µg/mL
4,B7,0.167 µg/mL
5,B8,0.0134 µg/mL
6,B9,0.321 µg/mL

# From patent US20240059757A1 (VIR BIOTECHNOLOGY, published 2024)
